This passage reports stoichiometry N results from publication PMC5540154.

The target in this assay is D. melanogaster Isu (fIscU) (D. melanogaster) (UniProt Q9VHK6). Nature of the assay: SEC. On the technique in general: Size exclusion chromatography separates by hydrodynamic size, large species first.

In general, stoichiometry N refers to the number of molecules, sites or subunits per partner or assembly.

Turning to “D. melanogaster Isu (fIscU) (from UniProt Q9VHK6 1-154) (natural protein)”, the stoichiometry N was 2.
